Measured values as given in patent US9958461B2, “Detection of protein to protein interactions” (THE GOVERNING COUNCIL OF THE UNIVERSITY OF TORONTO, priority 2013, dated 2018).

B1: CTTN (protein, UniProt Q14247 1-550, looked up)
Src substrate cortactin: MWKASAGHAVSIAQDDAGADDWETDPDFVNDVSEKEQRWGAKTVQGSGHQEHINIHKLRENVFQEHQTLKEKELETGPKASHGYGGKFGVEQDRMDKSAVGHEYQSKLSKHCSQVDSVRGFGGKFGVQMDRVDQSAVGFEYQGKTEKHASQKDYSSGFGGKYGVQADRVDKSAVGFDYQGKTEKHESQRDYSKGFGGKYGIDKDKVDKSAVGFEYQGKTEKHESQKDYVKGFGGKFGVQTDRQDKCALGWDHQEKLQLHESQKDYKTGFGGKFGVQSERQDSAAVGFDYKEKLAKHESQQDYSKGFGGKYGVQKDRMDKNASTFEDVTQVSSAYQKTVPVEAVTSKTSNIRANFENLAKEKEQEDRRKAEAERAQRMAKERQEQEEARRKLEEQARAKTQTPPVSPAPQPTEERLPSSPVYEDAASFKAELSYRGPVSGTEPEPVYSMEAADYREASSQQGLAYATEAVYESAEAPGHYPAEDSTYDEYENDLGITAVALYDYQAAGDDEISFDPDDIITNIEMIDDGWWRGVCKGRYGLFPANYVELRQ
B2: CTNNA1 (protein, UniProt P35221 2-906, looked up)
Catenin alpha-1: TAVHAGNINFKWDPKSLEIRTLAVERLLEPLVTQVTTLVNTNSKGPSNKKRGRSKKAHVLAASVEQATENFLEKGDKIAKESQFLKEELVAAVEDVRKQGDLMKAAAGEFADDPCSSVKRGNMVRAARALLSAVTRLLILADMADVYKLLVQLKVVEDGILKLRNAGNEQDLGIQYKALKPEVDKLNIMAAKRQQELKDVGHRDQMAAARGILQKNVPILYTASQACLQHPDVAAYKANRDLIYKQLQQAVTGISNAAQATASDDASQHQGGGGGELAYALNNFDKQIIVDPLSFSEERFRPSLEERLESIISGAALMADSSCTRDDRRERIVAECNAVRQALQDLLSEYMGNAGRKERSDALNSAIDKMTKKTRDLRRQLRKAVMDHVSDSFLETNVPLLVLIEAAKNGNEKEVKEYAQVFREHANKLIEVANLACSISNNEEGVKLVRMSASQLEALCPQVINAALALAAKPQSKLAQENMDLFKEQWEKQVRVLTDAVDDITSIDDFLAVSENHILEDVNKCVIALQEKDVDGLDRTAGAIRGRAARVIHVVTSEMDNYEPGVYTEKVLEATKLLSNTVMPRFTEQVEAAVEALSSDPAQPMDENEFIDASRLVYDGIRDIRKAVLMIRTPEELDDSDFETEDFDVRSRTSVQTEDDQLIAGQSARAIMAQLPQEQKAKIAEQVASFQEEKSKLDAEVSKWDDSGNDIIVLAKQMCMIMMEMTDFTRGKGPLKNTSDVISAAKKIAEAGSRMDKLGRTIADHCPDSACKQDLLAYLQRIALYCHQLNICSKVKAEVQNLGGELVVSGVDSAMSLIQAAKNLMNAVVQTVKASYVASTKYQKSQGMASLNLPAVSWKMKAPEKKPLVKREKQDETQTKIKRASQKKHVNPVQALSEFKAMDSI
B3: LAT (protein, UniProt O43561 1-262, looked up)
Linker for activation of …: MEEAILVPCVLGLLLLPILAMLMALCVHCHRLPGSYDSTSSDSLYPRGIQFKRPHTVAPWPPAYPPVTSYPPLSQPDLLPIPRSPQPLGGSHRTPSSRRDSDGANSVASYENEGASGIRGAQAGWGVWGPSWTRLTPVSLPPEPACEDADEDEDDYHNPGYLVVLPDSTPATSTAAPSAPALSTPGIRDSAFSMESIDDYVNVPESGESAEASLDGSREYVNVSQELHPGAAKTEPAALSSQEAEEVEEEGAPDYENLQELN
B4: PLCG2 (protein, UniProt P16885 1-1265, looked up)
1-phosphatidylinositol …: MSTTVNVDSLAEYEKSQIKRALELGTVMTVFSFRKSTPERRTVQVIMETRQVAWSKTADKIEGFLDIMEIKEIRPGKNSKDFERAKAVRQKEDCCFTILYGTQFVLSTLSLAADSKEDAVNWLSGLKILHQEAMNASTPTIIESWLRKQIYSVDQTRRNSISLRELKTILPLINFKVSSAKFLKDKFVEIGAHKDELSFEQFHLFYKKLMFEQQKSILDEFKKDSSVFILGNTDRPDASAVYLHDFQRFLIHEQQEHWAQDLNKVRERMTKFIDDTMRETAEPFLFVDEFLTYLFSRENSIWDEKYDAVDMQDMNNPLSHYWISSSHNTYLTGDQLRSESSPEAYIRCLRMGCRCIELDCWDGPDGKPVIYHGWTRTTKIKFDDVVQAIKDHAFVTSSFPVILSIEEHCSVEQQRHMAKAFKEVFGDLLLTKPTEASADQLPSPSQLREKIIIKHKKLGPRGDVDVNMEDKKDEHKQQGELYMWDSIDQKWTRHYCAIADAKLSFSDDIEQTMEEEVPQDIPPTELHFGEKWFHKKVEKRTSAEKLLQEYCMETGGKDGTFLVRESETFPNDYTLSFWRSGRVQHCRIRSTMEGGTLKYYLTDNLTFSSIYALIQHYRETHLRCAEFELRLTDPVPNPNPHESKPWYYDSLSRGEAEDMLMRIPRDGAFLIRKREGSDSYAITFRARGKVKHCRINRDGRHFVLGTSAYFESLVELVSYYEKHSLYRKMRLRYPVTPELLERYNMERDINSLYDVSRMYVDPSEINPSMPQRTVKALYDYKAKRSDELSFCRGALIHNVSKEPGGWWKGDYGTRIQQYFPSNYVEDISTADFEELEKQIIEDNPLGSLCRGILDLNTYNVVKAPQGKNQKSFVFILEPKQQGDPPVEFATDRVEELFEWFQSIREITWKIDTKENNMKYWEKNQSIAIELSDLVVYCKPTSKTKDNLENPDFREIRSFVETKADSIIRQKPVDLLKYNQKGLTRVYPKGQRVDSSNYDPFRLWLCGSQMVALNFQTADKYMQMNHALFSLNGRTGYVLQPESMRTEKYDPMPPESQRKILMTLTVKVLGARHLPKLGRSIACPFVEVEICGAEYDNNKFKTTVVNDNGLSPIWAPTQEKVTFEIYDPNLAFLRFVVYEEDMFSDPNFLAHATYPIKAVKSGFRSVPLKNGYSEDIELASLLVFCEMRPVLESEEELYSSCRQLRRRQEELNNQLFLYDTHQNLRNANRDALVKEFSVNENQLQLYQEKCNKRLREKRVSNSKFYS
B5: STAP2 (protein, UniProt Q9UGK3 1-403, looked up)
Signal-transducing adaptor …: MASALRPPRVPKPKGVLPSHYYESFLEKKGPCDRDYKKFWAGLQGLTIYFYNSNRDFQHVEKLNLGAFEKLTDEIPWGSSRDPGTHFSLILRDQEIKFKVETLECREMWKGFILTVVELRVPTDLTLLPGHLYMMSEVLAKEEARRALETPSCFLKVSRLEAQLLLERYPECGNLLLRPSGDGADGVSVTTRQMHNGTHVVRHYKVKREGPKYVIDVEQPFSCTSLDAVVNYFVSHTKKALVPFLLDEDYEKVLGYVEADKENGENVWVAPSAPGPGPAPCTGGPKPLSPASSQDKLPPLPPLPNQEENYVTPIGDGPAVDYENQDVASSSWPVILKPKKLPKPPAKLPKPPVGPKPEPKVFNGGLGRKLPVSSAQPLFPTAGLADMTAELQKKLEKRRALEH
B6: PTPN12 (protein, UniProt Q05209 1-780, looked up)
Tyrosine-protein phosphatase …: MEQVEILRKFIQRVQAMKSPDHNGEDNFARDFMRLRRLSTKYRTEKIYPTATGEKEENVKKNRYKDILPFDHSRVKLTLKTPSQDSDYINANFIKGVYGPKAYVATQGPLANTVIDFWRMIWEYNVVIIVMACREFEMGRKKCERYWPLYGEDPITFAPFKISCEDEQARTDYFIRTLLLEFQNESRRLYQFHYVNWPDHDVPSSFDSILDMISLMRKYQEHEDVPICIHCSAGCGRTGAICAIDYTWNLLKAGKIPEEFNVFNLIQEMRTQRHSAVQTKEQYELVHRAIAQLFEKQLQLYEIHGAQKIADGVNEINTENMVSSIEPEKQDSPPPKPPRTRSCLVEGDAKEEILQPPEPHPVPPILTPSPPSAFPTVTTVWQDNDRYHPKPVLHMVSSEQHSADLNRNYSKSTELPGKNESTIEQIDKKLERNLSFEIKKVPLQEGPKSFDGNTLLNRGHAIKIKSASPCIADKISKPQELSSDLNVGDTSQNSCVDCSVTQSNKVSVTPPEESQNSDTPPRPDRLPLDEKGHVTWSFHGPENAIPIPDLSEGNSSDINYQTRKTVSLTPSPTTQVETPDLVDHDNTSPLFRTPLSFTNPLHSDDSDSDERNSDGAVTQNKTNISTASATVSAATSTESISTRKVLPMSIARHNIAGTTHSGAEKDVDVSEDSPPPLPERTPESFVLASEHNTPVRSEWSELQSQERSEQKKSEGLITSENEKCDHPAGGIHYEMCIECPPTFSDKREQISENPTEATDIGFGNRCGKPKGPRDPPSEWT
B7: ITK (protein, UniProt Q08881 1-620, looked up)
Tyrosine-protein kinase …: MNNFILLEEQLIKKSQQKRRTSPSNFKVRFFVLTKASLAYFEDRHGKKRTLKGSIELSRIKCVEIVKSDISIPCHYKYPFQVVHDNYLLYVFAPDRESRQRWVLALKEETRNNNSLVPKYHPNFWMDGKWRCCSQLEKLATGCAQYDPTKNASKKPLPPTPEDNRRPLWEPEETVVIALYDYQTNDPQELALRRNEEYCLLDSSEIHWWRVQDRNGHEGYVPSSYLVEKSPNNLETYEWYNKSISRDKAEKLLLDTGKEGAFMVRDSRTAGTYTVSVFTKAVVSENNPCIKHYHIKETNDNPKRYYVAEKYVFDSIPLLINYHQHNGGGLVTRLRYPVCFGRQKAPVTAGLRYGKWVIDPSELTFVQEIGSGQFGLVHLGYWLNKDKVAIKTIREGAMSEEDFIEEAEVMMKLSHPKLVQLYGVCLEQAPICLVFEFMEHGCLSDYLRTQRGLFAAETLLGMCLDVCEGMAYLEEACVIHRDLAARNCLVGENQVIKVSDFGMTRFVLDDQYTSSTGTKFPVKWASPEVFSFSRYSSKSDVWSFGVLMWEVFSEGKIPYENRSNSEVVEDISTGFRLYKPRLASTHVYQIMNHCWKERPEDRPAFSRLLRQLAEIAESGL

Biological target: T1, EGFR-L858R (Homo sapiens, UniProt P00533, L858R)
T1 construct: with the advantage of testing full-length integral membrane proteins; (GGGGS)2 linker-Cub (human ubiquitin aa 35-76)-GAL4(1-147)-mNFkB(364-550) (C); expressed in transfected cells
Experiment: MaMTH EGFR-interactor screen, lentiviral preys against EGFR-L858R bait (interaction score)
Type: cell-based
Details: MaMTH interaction score of prey with EGFR-L858R bait
Protocol: (§1) After lentivirus harvest, target cells (stable 5×GAL4UAS-luciferase reporter-HEK293T cells) were infected at a multiplicity of infection (MOI) of around 0.3-0.4 to ensure single copy integration per cell. Cells were selected in puromycin for at least 48 h and transfected with either EGFR-wildtype or EGFR-L858R baits in triplicates. 24 h after transfection, cells were lysed and luciferase assays performed. On each set of interaction assays, various negative controls were included. To calculate a MaMTH-interaction scores, negative controls were averaged and the fold-change of luciferase activity compared to the averaged controls was calculated and defined as the interaction score.
(§2) Each set of experiments contains a defined set of negative controls in at least three replicates. Negative controls were chosen as such that there is a range of controls showing high-background luciferase activity (normally cytosolic proteins: Fabp5, Pex19) as well as medium-background luciferase activity (membrane-bound interactors: Pex7, GABBR2). Negative controls were averaged and the fold-change of luciferase activity was calculated. Using this method, we have a stringent cut-off and chose an interaction score >1 to be interacting proteins.
(§3) Our cut-off of 1 is based on fold-change difference in luciferase activity over averaged negative controls. Negative controls include cytosolic preys (which tend to promiscuously bind to many proteins), plasma membrane- and peroxisomal-prey proteins. In general, we chose stringent conditions by testing preys that tend to have high luciferase background with any bait tested, in order to generate high-confidence interaction data. […] Phosphorylated tyrosine residues on the receptor are typically docking sites for downstream cytoplasmic targets and recognized through SH2 or PTB domains^43.

Molecule | EGFR-L858R mean
B1 | 22.11
B2 | 1.34
B3 | 18.39
B4 | 2.43
B5 | 1.49
B6 | 1.20
B7 | 0.94

Biological target: T2, EGFR-Wt (Homo sapiens, UniProt P00533)
T2 construct: with the advantage of testing full-length integral membrane proteins; (GGGGS)2 linker-Cub (human ubiquitin aa 35-76)-GAL4(1-147)-mNFkB(364-550) (C); expressed in transfected cells
Experiment: MaMTH EGFR-interactor screen, lentiviral preys against EGFR-wildtype bait (interaction score)
Type: cell-based
Details: MaMTH interaction score of prey with EGFR-Wt bait, mean
Protocol: as §1, §2, §3

Molecule | EGFR-Wt mean
B1 | 33.81
B2 | 2.11
B3 | 29.54
B4 | 3.99
B5 | 2.76
B6 | 2.64
B7 | 2.21

Tested on: EGFR-Wt
Experiment: as above
Type: cell-based, human
Details: ratio of EGFR-Wt mean to EGFR-L858R mean interaction score
Protocol: as §1, §2, §3

Molecule | Wt/L858R
B1 | 1.53
B2 | 1.58
B3 | 1.61
B4 | 1.64
B5 | 1.86
B6 | 2.20
B7 | 2.35
